In one test the target is CTLA4 (human) (UniProt P16410). As to the kind of experiment: flow cytometry on HEK293 cells transfected with CTLA4. Background: Flow cytometry measures light scatter and fluorescence of single cells or particles in a stream.
A further test addresses PD-L1 (human) (UniProt Q9NZQ7). Nature of the test: flow cytometry on HEK293 cells transfected with PD-L1.
Test [1] deals with human CD28, full-length, expressed on transfected Expi293 cells (human) (UniProt P10747). Nature of the test: flow cytometry on CD28-expressing Expi293 cells.
The next test deals with CD112R (human) (UniProt Q6DKI7). As to the kind of experiment: flow cytometry, cells expressing target, 25 nM.
The target in a further test is T1, CD96 (UniProt P40200).
T1 sequence (looked up): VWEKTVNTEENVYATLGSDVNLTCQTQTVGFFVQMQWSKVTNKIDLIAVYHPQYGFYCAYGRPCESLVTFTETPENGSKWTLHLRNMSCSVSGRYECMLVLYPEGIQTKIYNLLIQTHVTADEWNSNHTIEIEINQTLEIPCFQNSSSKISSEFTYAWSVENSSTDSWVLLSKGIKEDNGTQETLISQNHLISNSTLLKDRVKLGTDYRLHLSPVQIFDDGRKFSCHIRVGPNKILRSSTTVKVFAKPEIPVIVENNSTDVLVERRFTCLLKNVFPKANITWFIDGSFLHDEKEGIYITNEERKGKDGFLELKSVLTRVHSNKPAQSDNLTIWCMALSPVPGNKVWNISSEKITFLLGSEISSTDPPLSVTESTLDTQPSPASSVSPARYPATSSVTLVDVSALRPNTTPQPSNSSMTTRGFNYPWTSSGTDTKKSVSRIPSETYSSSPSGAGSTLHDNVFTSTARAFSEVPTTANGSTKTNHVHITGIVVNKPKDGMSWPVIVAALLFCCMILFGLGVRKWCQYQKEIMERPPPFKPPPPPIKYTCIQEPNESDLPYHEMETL
Nature of the test: flow cytometry, cells expressing target, 25 nM.

Another test deals with T2, TIGIT (human) (UniProt Q495A1).
T2 sequence: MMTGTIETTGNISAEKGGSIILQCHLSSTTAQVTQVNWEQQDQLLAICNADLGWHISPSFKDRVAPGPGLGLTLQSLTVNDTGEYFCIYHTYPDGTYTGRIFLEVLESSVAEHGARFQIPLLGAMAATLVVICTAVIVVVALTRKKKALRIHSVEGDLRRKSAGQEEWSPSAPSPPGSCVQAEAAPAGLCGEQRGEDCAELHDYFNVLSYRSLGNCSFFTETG
Nature of the test: flow cytometry, cells expressing target, 25 nM.

The target in a further test is T3, CD226 (human) (UniProt Q15762).
T3 sequence: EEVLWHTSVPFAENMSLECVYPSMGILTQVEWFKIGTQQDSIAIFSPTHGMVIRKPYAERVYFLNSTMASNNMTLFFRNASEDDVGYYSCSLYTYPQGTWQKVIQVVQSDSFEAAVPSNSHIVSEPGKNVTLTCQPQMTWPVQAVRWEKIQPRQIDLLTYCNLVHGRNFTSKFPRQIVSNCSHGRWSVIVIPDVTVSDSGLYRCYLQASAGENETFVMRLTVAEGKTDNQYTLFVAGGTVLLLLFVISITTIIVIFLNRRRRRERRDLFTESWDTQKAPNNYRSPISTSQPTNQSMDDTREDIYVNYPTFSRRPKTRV
Nature of the test: flow cytometry, cells expressing target, 25 nM.

For test [2], the target named is CD80 (Homo sapiens (Human)) (UniProt P33681). Nature of the test: flow cytometry, cells expressing CD80.
For test [3], the target named is PD-1 (Homo sapiens (Human)) (UniProt Q15116). Nature of the test: flow cytometry, cells expressing PD-1.

Sequence of CD112R (human) (Q6DKI7 whole entry): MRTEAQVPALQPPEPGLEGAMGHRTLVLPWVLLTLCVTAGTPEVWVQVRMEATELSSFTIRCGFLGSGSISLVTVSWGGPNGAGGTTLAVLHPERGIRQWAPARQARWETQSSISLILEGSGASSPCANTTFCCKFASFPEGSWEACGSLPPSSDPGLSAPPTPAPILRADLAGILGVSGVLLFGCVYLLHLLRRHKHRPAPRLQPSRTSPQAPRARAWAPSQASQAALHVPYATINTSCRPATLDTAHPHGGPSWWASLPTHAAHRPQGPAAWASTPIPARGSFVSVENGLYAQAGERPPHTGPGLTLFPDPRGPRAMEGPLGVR
Sequence of CTLA4 (human) (P16410 36-223 limits assumed): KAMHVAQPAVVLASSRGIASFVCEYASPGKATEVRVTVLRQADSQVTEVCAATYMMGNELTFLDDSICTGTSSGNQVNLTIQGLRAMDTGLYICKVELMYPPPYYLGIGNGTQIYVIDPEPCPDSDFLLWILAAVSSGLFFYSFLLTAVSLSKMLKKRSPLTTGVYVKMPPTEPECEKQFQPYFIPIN
Sequence of PD-L1 (human) (Q9NZQ7 19-290 limits assumed): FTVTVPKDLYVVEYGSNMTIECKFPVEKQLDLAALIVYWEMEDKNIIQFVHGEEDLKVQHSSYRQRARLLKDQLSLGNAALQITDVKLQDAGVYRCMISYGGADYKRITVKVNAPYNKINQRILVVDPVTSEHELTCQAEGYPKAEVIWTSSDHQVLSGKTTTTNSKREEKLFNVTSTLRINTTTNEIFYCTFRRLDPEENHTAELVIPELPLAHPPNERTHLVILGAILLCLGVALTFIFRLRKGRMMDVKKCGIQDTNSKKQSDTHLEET

As to “CD80 IgV-Fc E35D/M47I (from UniProt P33681 35-141) (Fc fusion)”, in the test with CTLA4 (human), the MFI at 66.6 nM was found to be 354000 MFI. In addition, the MFI at 22.2 nM with PD-L1 (human) came out at 150000 MFI.
“CD80 IgV-Fc L70P/F92S (from UniProt P33681 35-141) (Fc fusion)” yielded an MFI at 66.6 nM in the test with CTLA4 (human) of 4040 MFI. In the test with PD-L1 (human), this substance displayed an MFI at 22.2 nM of 6170 MFI.
For the substance “CD80 IgV-Fc M43I/C82R (from UniProt P33681 35-141) (Fc fusion)”, the MFI at 66.6 nM with CTLA4 (human) turned out to be 3640 MFI. In the test with PD-L1 (human), this substance yielded an MFI at 22.2 nM of 7400 MFI.
Take “CD80 IgV-Fc N55D/K86M (from UniProt P33681 35-141) (Fc fusion)”: in the test with CTLA4 (human), the MFI at 66.6 nM amounted to 3540 MFI. The substance further displayed an MFI at 22.2 nM with PD-L1 (human) of 5090 MFI.
For “CD80 IgV-Fc V22L/M38V/M47T/A71D/L85M (from UniProt P33681 35-141) (Fc fusion)”, in that order: 175000 MFI and 6140 MFI.
In test [1], “CD80 variant M38V/T41D/M43I/W50G/D76G/V83A/K89E/T120S/T130A ECD-Fc fusion (from UniProt P33681 35-242)” came in with an MFI of 5 MFI.
As to “CD155 variant IgV-Fc D8G, V9I, V11A, P18T, T26M, S52P, L79P, F91S, G92A, T107L, V115A (from UniProt P15151 24-139) (Fc fusion)”, the MFI at 25 nM came to 817 MFI in the test with CD112R (human), 97800 MFI with CD96 and 52500 MFI with TIGIT (human).
Turning to “CD155 variant IgV-Fc P18F, E51V, S54G, Q60R, L79Q, E82G, S87T, M90I, F91S, G92R, T107M (from UniProt P15151 24-139) (Fc fusion)”, the MFI at 25 nM with CD112R (human) was 1010 MFI; with CD96, 61800 MFI; in the test with CD226 (human) it was 15700 MFI; with TIGIT (human) it was 46100 MFI.
“CD155 variant IgV-Fc P18F, H40Q, T61K, Q62K, L79P, F91S, L104M, T107V (from UniProt P15151 24-139) (Fc fusion)”: the MFI at 25 nM with CD112R (human) turned out to be 918 MFI; in the test with CD226 (human) it was 853 MFI; with TIGIT (human), 108000 MFI.
On to “CD155 variant IgV-Fc P18S, H59N, V75A, L79P, A81T, F91S, L104M, T107M (from UniProt P15151 24-139) (Fc fusion)”, for which the MFI at 25 nM with CD112R (human) came out at 915 MFI; in the test with CD96, 759 MFI; in the test with CD226 (human) it was 676 MFI; in the test with TIGIT (human) it was 800 MFI.
In the case of “CD155 variant IgV-Fc P18S, K70R, L79P, F91S, G111R (from UniProt P15151 24-139) (Fc fusion)”, the MFI at 25 nM with CD112R (human) was found to be 854 MFI; with CD96 it was 1180 MFI; with CD226 (human), 793 MFI; with TIGIT (human), 16200 MFI.
For “CD155 variant IgV-Fc P18T, G19D, M36T, S54N, L79P, L83Q, F91S, T107M, F108Y (from UniProt P15151 24-139) (Fc fusion)”, in that order: 1280 MFI, 726 MFI, 748 MFI and 905 MFI.
Consider “CD155 variant IgV-Fc P18T, M55L, T61R, L79P, F91S, V106I, T107M (from UniProt P15151 24-139) (Fc fusion)”, for which the MFI at 25 nM with CD112R (human) is 827 MFI; with CD96, 57900 MFI; in the test with CD226 (human), 1910 MFI; with TIGIT (human) it was 133000 MFI.
Consider “CD155 variant IgV-Fc P18T, T39S, S52P, S54R, L79P, F91S, T107M (from UniProt P15151 24-139) (Fc fusion)”, for which the MFI at 25 nM was 1040 MFI with CD112R (human), 1220 MFI with CD96, 744 MFI in the test with CD226 (human) and 45900 MFI in the test with TIGIT (human).
As to “CD155 variant IgV-Fc P18T, W46C, H49R, S65A, S67V, A76T, L79P, S87T, L104M (from UniProt P15151 24-139) (Fc fusion)”, the MFI at 25 nM with CD112R (human) was determined as 803 MFI; in the test with CD96, 717 MFI; in the test with CD226 (human), 640 MFI; with TIGIT (human), 918 MFI.
As to “CD155 variant IgV-Fc V9A, P18S, M36T, S65G, L79P, F91S, L104T, G111R, S112I (from UniProt P15151 24-139) (Fc fusion)”, the results for the MFI at 25 nM with CD112R (human), in the test with CD226 (human) and with TIGIT (human) were 886 MFI, 989 MFI and 92500 MFI, respectively.
In the case of “CD155 variant IgV-Fc V9I, P18F, A47E, G50S, E68G, L79P, F91S, T107M (from UniProt P15151 24-139) (Fc fusion)”, the MFI at 25 nM in the test with CD112R (human) was found to be 752 MFI; with CD96, 102000 MFI; with CD226 (human), 54300 MFI; with TIGIT (human), 55200 MFI.
In the case of “CD155 variant IgV-Fc V9L, P18L, M55V, S69L, L79P, A81E, F91S, T107M (from UniProt P15151 24-139) (Fc fusion)”, the MFI at 25 nM turned out to be 920 MFI with CD112R (human), 67400 MFI with CD96 and 58700 MFI with TIGIT (human).
On to “CD155 variant IgV-Fc V9L, V11M, P18S, N35S, S54G, Q62K, L79P, L104M, T107M, V115M (from UniProt P15151 24-139) (Fc fusion)”, for which the MFI at 25 nM with CD112R (human) was determined as 893 MFI; with CD96 it was 925 MFI; with CD226 (human) it was 2320 MFI; in the test with TIGIT (human) it was 3000 MFI.
In the case of “CD155 variant IgV-Fc V10F, T15S, P18L, R48Q, L79P, F91S, T107M, V115M (from UniProt P15151 24-139) (Fc fusion)”, the MFI at 25 nM with CD112R (human) turned out to be 901 MFI; with CD96, 998 MFI; with CD226 (human), 792 MFI; in the test with TIGIT (human), 1170 MFI.
Consider “CD155 variant IgV-Fc V10G, P18T, L72Q, L79P, F91S, T107M (from UniProt P15151 24-139) (Fc fusion)”, for which the MFI at 25 nM with CD112R (human) was 863 MFI; in the test with CD96, 3640 MFI; with TIGIT (human) it was 4250 MFI.
On to “CD155 variant IgV-Fc V11A, P18F, D23A, L79P, G80D, V95A, T107M (from UniProt P15151 24-139) (Fc fusion)”, for which the MFI at 25 nM is 830 MFI in the test with CD112R (human), 33900 MFI with CD96, 913 MFI with CD226 (human) and 45200 MFI with TIGIT (human).
With CTLA4-Fc (Fc fusion), the MFI at 20 nM was 200000 in [2] and 59 in test [3].
On to Fc Control, for which the MFI at 20 nM in [2] came to 132; in test [3], 59.
On to “ICOSL variant N52S/S130G/Y152C ECD-Fc fusion (from UniProt O75144 19-256)”, for which the MFI in test [1] is 24 MFI.
“variant PD-L1 ECD-Fc G15A, I36T, M97L, K111E, H202Q (from UniProt Q9NZQ7 19-238) (Fc fusion)” returned an MFI at 20 nM in test [3] of 112.
With “variant PD-L1 ECD-Fc G15A, I36T, V129D (from UniProt Q9NZQ7 19-238) (Fc fusion)”, the MFI at 20 nM amounted to 136 in [2] and 114 in test [3].
Take “variant PD-L1 ECD-Fc G15A, I36T, V129D, R195G (from UniProt Q9NZQ7 19-238) (Fc fusion)”: the MFI at 20 nM in [3] stood at 125.
Turning to “variant PD-L1 ECD-Fc I36S, M41K, M97L, K144Q, R195G, E200K, H202Q, L206F (Fc fusion)”, the figures for the MFI at 20 nM in test [2] and in test [3] were 68700 and 3500, respectively.
With “variant PD-L1 ECD-Fc I36T, I83T, M97L, K144E, P198T (Fc fusion)”, the results for the MFI at 20 nM in [2] and in [3] were 6220 and 62, respectively.
The corresponding values for “variant PD-L1 ECD-Fc I36T, M97L, A103V, Q155H (from UniProt Q9NZQ7 19-238) (Fc fusion)” are 128 and 120.
Regarding “variant PD-L1 ECD-Fc M18V, M97L, F193S, R195G, E200K, H202Q (from UniProt Q9NZQ7 19-238) (Fc fusion)”, the MFI at 20 nM in test [3] amounted to 69.

These data come from US20200040059A1.
